According to patent US20240150489A1 (ICHNOS SCIENCES, published 2024):
Positions count from the first letter of the chain named. Names and notes keep the numbering of the source.

Columns and labels:
[1] = target: T1, CD47 on cells (Daudi cells; human red blood cells) (human, UniProt Q08722 19-323); test: blocking of SIRPα-mIgG1 Fc binding to CD47 on Daudi cells, image-based readout with anti-mouse IgG Fc Alexa Fluor 647, % inhibition; the sheet calls the half-maximal value EC50
T1 construct: whole, on cells; These cells also carry CD38

Human FcyRIIIA [2] = target: T2, Human FcyRIIIA (human, UniProt P08637 17-193, limits assumed); test: SPR, antibody on Protein G chip, steady state
T2 construct: also called FcγRIIIa

Human FcyRIIB [3] = target: T3, Human FcyRIIB (human, UniProt P31994 46-217, limits assumed); test: SPR, antibody on Protein G chip, steady state
T3 construct: also called FcγRIIb
T3 sequence (looked up): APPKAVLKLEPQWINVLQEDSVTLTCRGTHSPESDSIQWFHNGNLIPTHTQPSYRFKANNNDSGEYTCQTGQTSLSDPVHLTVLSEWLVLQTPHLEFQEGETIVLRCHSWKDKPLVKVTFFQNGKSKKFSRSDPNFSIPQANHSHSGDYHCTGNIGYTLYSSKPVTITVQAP

Human FcyRIIA [4] = target: T4, Human FcyRIIA (human, UniProt P12318 34-208, limits assumed); test: SPR, antibody on Protein G chip, steady state
T4 construct: also called FcγRIIa
T4 chain: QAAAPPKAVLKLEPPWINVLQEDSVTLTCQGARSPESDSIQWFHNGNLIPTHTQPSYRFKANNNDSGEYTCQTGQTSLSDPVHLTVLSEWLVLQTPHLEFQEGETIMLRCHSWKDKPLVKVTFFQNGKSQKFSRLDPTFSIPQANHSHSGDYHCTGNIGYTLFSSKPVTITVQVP

Human FcyRI [5] = target: T5, Human FcyRI (human, UniProt P12314 16-288, limits assumed); test: SPR; reference trastuzumab
T5 construct: also called FcγRIa

Human FcyRIIIA [6] = target: T2, Human FcyRIIIA; test: SPR; reference trastuzumab
Human FcyRIIB [7] = target: T3, Human FcyRIIB; test: SPR; reference trastuzumab
Human FcyRIIA [8] = target: T4, Human FcyRIIA; test: SPR; reference trastuzumab
[9] = target: T6, CD38 on cells (Daudi, Raji, KMS-12-PE, NCI-H929, KMS-12-BM) (human, UniProt P28907); test: flow cytometry on KMS-12-PE cells (carry CD38 and CD47), anti-human IgG-Fc PE, GeoMFI; apparent whole-cell value, the anti-CD47 arm also binds
T6 construct: full-length, cell surface; These cells also carry CD47

[10] = target: T6, CD38 on cells (Daudi, Raji, KMS-12-PE, …); test: flow cytometry on KMS-12-BM cells (carry CD38 and CD47), anti-human IgG-Fc PE, GeoMFI; apparent whole-cell value, the anti-CD47 arm also binds
Human FcRn = target: T7, Human FcRn (human, UniProt P55899 24-297, limits assumed); test: SPR, antibody on Protein L chip, steady state, pH 6.0
T7 construct: Measured at pH 6.0; also called human FcRn receptor

[11] = target: T6, CD38 on cells (Daudi, Raji, KMS-12-PE, …); test: flow cytometry on NCI-H929 cells (carry CD38 and CD47), anti-human IgG-Fc PE, GeoMFI; apparent whole-cell value, the anti-CD47 arm also binds
[12] = target: T8, human FcRn-ECD-Avi-His / B2M complex (human, UniProt P61769 21-119); test: SPR steady state, antibody captured with Human Fab Capture kit, FcRn analyte; reference trastuzumab control IgG1
T8 construct: B2M was cloned full length with its native leader; The alternative SPR method for BEAT CD38/CD47-60 says only 'FcRn' as analyte; the tie to the in-house complex is inferred; also called human FcRn/B2M complex

[13] = target: T6, CD38 on cells (Daudi, Raji, KMS-12-PE, …); test: flow cytometry on Raji cells (carry CD38 and CD47), anti-human IgG-Fc PE, GeoMFI; apparent whole-cell value, the anti-CD47 arm also binds
Human FcyRI [14] = target: T5, Human FcyRI; test: SPR, antibody on Protein G chip, 1:1 binding model
[15] = target: T6, CD38 on cells (Daudi, Raji, KMS-12-PE, …); test: flow cytometry on Daudi cells (carry CD38 and CD47), anti-human IgG-Fc PE, GeoMFI; apparent whole-cell value, the anti-CD47 arm also binds
[16] = target: T9, Avi-Tagged FcRn (Acrobiosystems, FCM-H82W2) (human, UniProt P55899 24-297, biotinylated (captured with Biotin CAPture kit)); test: SPR steady state, FcRn captured on CAP chip, antibody analyte; reference trastuzumab control IgG1
T9 construct: also called human neonatal Fc receptor

[17] = target: Avi-Tagged FcγRIa (Acrobiosystems, FCA-H82E8) (UniProt P12314 16-288, biotinylated (captured with Biotin CAPture kit)); test: SPR, FcγRIa captured on CAP chip, antibody analyte; reference trastuzumab control IgG1
human FcγR3a-ECD-His = target: T10, human FcγR3a-ECD-His (human, UniProt P08637 17-193); test: SPR steady state, antibody on protein G chip, receptor analyte; reference trastuzumab control IgG1
T10 construct: His-tagged fusion made in house (UniProt P08637); also called FcγRIIIa; Fc-receptor IIIa

human FcγR2b-ECD-His = target: T11, human FcγR2b-ECD-His (human, UniProt P31994 46-217); test: as above
T11 construct: His-tagged fusion made in house (UniProt P31994); also called FcγRIIb; Fc-receptor IIb
T11 sequence: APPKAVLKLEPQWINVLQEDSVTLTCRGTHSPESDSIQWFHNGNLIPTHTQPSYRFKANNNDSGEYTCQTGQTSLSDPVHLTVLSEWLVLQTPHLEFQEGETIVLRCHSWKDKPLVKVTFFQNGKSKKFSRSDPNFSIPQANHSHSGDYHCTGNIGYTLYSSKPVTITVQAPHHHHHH

human FcγR2a-ECD-His = target: T12, human FcγR2a-ECD-His (human, UniProt P12318 34-208); test: as above
T12 construct: His-tagged fusion made in house (UniProt P12318); The SPR method names only 'Fc-receptors IIa, IIb, and IIIa'; also called FcγRIIa; Fc-receptor IIa
T12 chain: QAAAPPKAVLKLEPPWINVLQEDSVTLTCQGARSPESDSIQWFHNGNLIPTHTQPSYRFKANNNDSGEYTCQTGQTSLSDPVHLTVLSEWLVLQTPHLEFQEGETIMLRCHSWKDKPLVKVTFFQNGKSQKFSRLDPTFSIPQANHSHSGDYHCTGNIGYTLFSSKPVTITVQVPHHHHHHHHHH

human CD47-ECD-Avi-His [18] = target: T13, human CD47-ECD-Avi-His (human); test: SPR; human CD47; value given in the text of paragraph 230
T13 construct: also called recombinant human CD47-avi-his protein; recombinant human CD47 protein

[19] = target: T14, cynomolgus CD47-ECD-Avi-His (cynomolgus monkey); test: SPR; cynomolgus monkey CD47; value given in the text of paragraph 230
T14 construct: also called recombinant cynomolgus monkey CD47-avi-his protein
T14 chain: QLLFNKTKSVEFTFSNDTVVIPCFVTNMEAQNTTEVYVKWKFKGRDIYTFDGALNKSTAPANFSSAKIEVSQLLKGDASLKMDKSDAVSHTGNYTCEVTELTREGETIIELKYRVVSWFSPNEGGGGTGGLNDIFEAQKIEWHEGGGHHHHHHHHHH

human CD47-ECD-Avi-His [20] = target: T13, human CD47-ECD-Avi-His; test: SPR, CD47 amine-coupled, Fab analyte, 1:1 fit
[21] = target: T14, cynomolgus CD47-ECD-Avi-His; test: SPR, CD47 amine-coupled, Fab analyte, 1:1 fit
[22] = target: T15, recombinant biotinylated human CD38 Avitag, His Tag (Acrobiosystems, CD8-H82E7) (human, UniProt P28907 43-300, biotinylated (Avitag)); test: SPR, biotinylated CD38 captured, Fab analyte, 1:1 fit;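 note: biacore T200 at 25 °C, single-cycle kinetics with Fab injected at 7.8–2000 nM for 3 min, dissociation followed 5 min, reference flow path subtracted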
T15 construct: Bought protein; also called biotinylated human CD38-avi-his protein; biotinylated recombinant human CD38 protein

[23] = target: T16, recombinant cynomolgus monkey CD38-ECD-C-his (cynomolgus monkey, UniProt Q5VAN0 45-301); test: SPR, His-captured cyno CD38, Fab analyte; NB = no detectable binding
T16 construct: Extracellular region fused to 6-His; also called cyno CD38-C-His; recombinant cynomolgus monkey CD38 protein

B1: BEAT CD38/CD47-60 (bispecific antibody, human IgG1, kappa)
heavy 1: EVQLVESGGGLIQPGGSLRLSCAASGFTLSRNTMHWVRQAPGKGLEWVSVIYQSGVTRYADSVKSRFTISRDNSKNTLYLQMNSLRAEDTAVYYCARGRYGVAGGPGYAFDVWGQGTLVTVSSASTKGPSVFPLAPSSKSTSGGTAALGCLVKDYFPEPVTVSWNSGALTSGVHTFPAVLQSSGLYSLSSVVTVPSSSLGTQTYICNVNHKPSNTKVDKKVEPKSCDKTHTCPPCPAPELLGGPDVFLFPPKPKDTLMISRTPEVTCVVVDVSHEDPEVKFNWYVDGVEVHNAKTKPREEQYNSTYRVVSVLTVLHQDWLNGKEYKCKVNNKALPAPEEKTISKAKGQPREPAVYTLPPSREEMTKNQVKLVCLVTGFYPSDIAVEWESSGQPENNYYTTPPMLDSDGSFSLVSWLNVDKSRWQQGNIFSCSVMHEALHNRFTQKSLSLSPG
heavy 2: not shown
light: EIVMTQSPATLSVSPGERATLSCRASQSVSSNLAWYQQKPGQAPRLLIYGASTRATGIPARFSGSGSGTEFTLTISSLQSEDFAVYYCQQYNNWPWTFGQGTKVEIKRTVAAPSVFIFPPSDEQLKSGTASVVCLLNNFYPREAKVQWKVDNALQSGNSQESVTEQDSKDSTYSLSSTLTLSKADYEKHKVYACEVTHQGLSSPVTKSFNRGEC
notes: 2+1 biparatopic format; BEAT (A): S239D + I332E + S324N, BEAT (B): S324N; also called BEAT CD38/47-60; BEAT 38/47-60
- IC50 (read off the curve) [1]: ~0.03 nM
- Kd (Human FcyRIIIA [2]): 15.1 nM
- Kd (Human FcyRIIB [3]): 306 nM
- Kd (Human FcyRIIA [4]): 110 nM
- fold enhancement BEAT CD38/47-60 over trastuzumab (Human FcyRI [5]): 2.6 fold
- fold enhancement BEAT CD38/47-60 over trastuzumab (Human FcyRIIIA [6]): 5.6 fold
- fold enhancement BEAT CD38/47-60 over trastuzumab (Human FcyRIIB [7]): 6.7 fold
- fold enhancement BEAT CD38/47-60 over trastuzumab (Human FcyRIIA [8]): 4.4 fold
- EC50 (read off the curve) [9]: ~3 nM
- EC50 (read off the curve) [10]: ~30 nM
- Kd (Human FcRn): 418 nM
- EC50 (read off the curve) [11]: ~8 nM
- KD ratio [BEAT/Control IgG1] [12]: 0.5 ratio
- EC50 (read off the curve) [13]: ~4 nM
- Kd (Human FcyRI [14]): 0.07 nM
- EC50 (read off the curve) [15]: ~4 nM

B2: BEAT CD38/CD47-21 (bispecific antibody, human IgG1, kappa)
heavy 1: B1 heavy 1 with D245S, E338I, K340E
heavy 2: QVQLVQSGAEVKKPGSSVKVSCKASGLPDATYAIGWVRQAPGQGLEWMGRIIPRLDAEHYAQKFQGRVTITADESTSTAYMELSSLRSEDTAVYYCARGLGYYLYSSYYFDIWGQGTLVTVSSASTKGPSVFPLAPSSKSTSGGTAALGCLVKDYFPEPVTVSWNSGALTSGVHTFPAVLQSSGLYSLSSVVTVPSSSLGTQTYICNVNHKPSNTKVDKKVEPKSCDKTHTCPPCPAPELLGGPSVFLFPPKPKDTLMISRTPEVTCVVVDVSHEDPEVKFNWYVDGVEVHNAKTKPREEQYNSTYRVVSVLTVLHQDWLNGKEYKCKVNNKALPAPIEETISKAKGQPREPEVATFPPSRDELTKNQVTLVCLVTGFYPSDIAVEWESNGQPENNYKTDPPLLESQGSFALSSRLRVDKSRWQQGNVFSCSVMHEALHNHYTQKSLSLSPG
light: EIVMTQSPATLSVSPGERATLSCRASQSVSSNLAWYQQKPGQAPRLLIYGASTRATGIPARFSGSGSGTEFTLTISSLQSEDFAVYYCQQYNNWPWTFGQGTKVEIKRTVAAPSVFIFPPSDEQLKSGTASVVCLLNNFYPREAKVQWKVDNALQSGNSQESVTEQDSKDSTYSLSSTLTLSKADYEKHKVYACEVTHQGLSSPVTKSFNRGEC
notes: 1+1 format; Fc mutations S324N + K334E in both heavy chains
- KD ratio [BEAT/Control IgG1] [16]: 0.4 ratio
- fold gain in affinity vs control [17]: 1030 fold
- fold gain in affinity vs control (human FcγR3a-ECD-His): 2 fold
- fold gain in affinity vs control (human FcγR2b-ECD-His): 0.1 fold
- fold gain in affinity vs control (human FcγR2a-ECD-His): 1 fold

B3: BEAT CD38/CD47-42 (bispecific antibody, human IgG1, kappa)
heavy 1: B1 heavy 1
heavy 2: B2 heavy 2 with E340K
light: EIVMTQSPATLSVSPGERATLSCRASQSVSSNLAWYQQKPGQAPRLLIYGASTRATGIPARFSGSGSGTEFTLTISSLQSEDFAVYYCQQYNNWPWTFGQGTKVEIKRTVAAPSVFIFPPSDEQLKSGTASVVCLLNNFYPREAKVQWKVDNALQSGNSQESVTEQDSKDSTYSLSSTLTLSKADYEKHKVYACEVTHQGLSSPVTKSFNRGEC
notes: 1+1 format; BEAT (A): S239D + I332E + S324N, BEAT (B): S324N
- KD ratio [BEAT/Control IgG1] [16]: 0.5 ratio
- fold gain in affinity vs control [17]: 3750 fold
- fold gain in affinity vs control (human FcγR3a-ECD-His): 11 fold
- fold gain in affinity vs control (human FcγR2b-ECD-His): 14 fold
- fold gain in affinity vs control (human FcγR2a-ECD-His): 6 fold

B4: anti-CD47-UCP01-H2 FAB (Fab, V domains shown)
VH: EVQLVESGGGLIQPGGSLRLSCAASGFTLSRNTMHWVRQAPGKGLEWVSVIYQSGVTRYADSVKGRFTISRDNSKNTLYLQMNSLRAEDTAVYYCARGRYGVAGGPGYAFDVWGQGTLVTVSS
VL: not shown
notes: human IgG1 Fab; also called anti-CD47-H2; anti-CD47-H2 Fab
- Kd (human CD47-ECD-Avi-His [18]): 104 nM
- Kd [19]: 142 nM
- Kd (human CD47-ECD-Avi-His [20]): 878 nM
- Kd [21]: 939 nM

B5: Anti-CD38-UCP01-D1 Fab (Fab, V domains shown)
VH: QVQLVQSGAEVKKPGSSVKVSCKASGGIFNGYLISWVRQAPGQGLEWMGGIIPVNGLADYAQKFQGRVTITADESTSTAYMELSSLRSEDTAVYYCARTIGRYIIAFDYWGQGTLVTVSS
VL: not shown
notes: human IgG1 Fab
- Kd [22]: 666 nM
- binding result [23]: no binding (tested: 2000 nM)
